Columns and labels:
[1] = hemagglutinating inhibition test with sugars (sugar binding specificity); assay type: cell-based
Method in brief: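 Double dilution series of sugars or glycoproteins were preincubated 1 h at room temperature with lectin adjusted to titer 4, then 4% red blood cell suspension was added for a further 1 h at room temperature. The minimum inhibition concentration was taken as the lowest concentration still inhibiting hemagglutination.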

[2] = frontal affinity chromatography (FAC), association constant to PA sugar chains having other L-fucose; assay type: binding; settings: 25 degrees C.
Method in brief: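 Lectin coupled via primary amines to NHS-activated sepharose in a miniature column, run in TBS (pH 7.4) at 0.125 ml/min and 25 degrees C. PA sugar chains (3.75 nM or 7.5 nM) applied in excess, with elution monitored by fluorescence (ex 310/em 380 nm). Ka calculated from front-end delay (V−Vo) versus PA rhamnose and effective ligand amount (Bt).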

minimum inhibition concentration of hemagglutination ([1]; inhibitor: Fructose): >100 mM | minimum inhibition concentration of hemagglutination ([1]; inhibitor: Galactose): >100 mM | minimum inhibition concentration of hemagglutination ([1]; inhibitor: Glucose): >100 mM | minimum inhibition concentration of hemagglutination ([1]; inhibitor: L-fucose): >100 mM | minimum inhibition concentration of hemagglutination ([1]; inhibitor: Lactose): >6 mM | minimum inhibition concentration of hemagglutination ([1]; inhibitor: Maltose): >100 mM | minimum inhibition concentration of hemagglutination ([1]; inhibitor: Mannose): 50 mM | minimum inhibition concentration of hemagglutination ([1]; inhibitor: Melibiose): >100 mM | minimum inhibition concentration of hemagglutination ([1]; inhibitor: Metyl α-mannoside): 50 mM | minimum inhibition concentration of hemagglutination ([1]; inhibitor: N-Acetylneuraminic acid): >100 mM | minimum inhibition concentration of hemagglutination ([1]; inhibitor: N-acetylgalactosamine): >100 mM | minimum inhibition concentration of hemagglutination ([1]; inhibitor: N-acetylglucosamine): >100 mM | minimum inhibition concentration of hemagglutination ([1]; inhibitor: N-glycolylneuraminic acid): >100 mM | minimum inhibition concentration of hemagglutination ([1]; inhibitor: Raffinose): >100 mM | minimum inhibition concentration of hemagglutination ([1]; inhibitor: Rhamnose): >100 mM | minimum inhibition concentration of hemagglutination ([1]; inhibitor: Serial lactose): >6 mM | minimum inhibition concentration of hemagglutination ([1]; inhibitor: Sucrose): >100 mM | minimum inhibition concentration of hemagglutination ([1]; inhibitor: Xylose): >100 mM
B1: Pisum sativum agglutinin (protein)
chain: TETTSFLITKFSPDQQNLIFQGDGYTTKEKLTLTKAVKNTVGRALYSSPIHIWDRETGNVANFVTSFTFVINAPNSYNVADGFTFFIAPVDTKPQTGGGYLGVFNSAEYDKTTQTVAVEFDTFYNAAWDPSNRDRHIGIDVNSIKSVNTKSWKLQNGEEANVVIAFNAATNVLTVSLTYPNSLEEENVTSYTLSDVVSLKDVVPEWVRIGFSATTGAEYAAHEVLSWSFHSELSGTSSSKQAADA
association constant Ka ([2]; Sugar chain No. 419): <1000 M⁻¹ | association constant Ka ([2]; Sugar chain No. 420): <1000 M⁻¹ | association constant Ka ([2]; Sugar chain No. 718): <1000 M⁻¹ | association constant Ka ([2]; Sugar chain No. 719): <1000 M⁻¹ | association constant Ka ([2]; Sugar chain No. 720): <1000 M⁻¹ | association constant Ka ([2]; Sugar chain No. 721): <1000 M⁻¹ | association constant Ka ([2]; Sugar chain No. 722): <1000 M⁻¹ | association constant Ka ([2]; Sugar chain No. 723): <1000 M⁻¹ | association constant Ka ([2]; Sugar chain No. 726): <1000 M⁻¹ | association constant Ka ([2]; Sugar chain No. 727): <1000 M⁻¹ | association constant Ka ([2]; Sugar chain No. 728 (as listed in Table 5/12)): <1000 M⁻¹ | association constant Ka ([2]; Sugar chain No. 729): <1000 M⁻¹ | association constant Ka ([2]; Sugar chain No. 730): <1000 M⁻¹ | association constant Ka ([2]; Sugar chain No. 731): <1000 M⁻¹ | association constant Ka ([2]; Sugar chain No. 739): <1000 M⁻¹ | association constant Ka ([2]; Sugar chain No. 909): <1000 M⁻¹ | association constant Ka ([2]; Sugar chain No. 910): <1000 M⁻¹ | association constant Ka ([2]; Sugar chain No. 931): <1000 M⁻¹ | association constant Ka ([2]; Sugar chain No. 932): <1000 M⁻¹ | association constant Ka ([2]; Sugar chain No. 933): <1000 M⁻¹
